Test results from patent US20250179215A1, “PLASMIN-BINDING VHHS” (RHEINISCHE FRIEDRICH-WILHELMS-UNIVERSITÄT BONN, priority 2022, published 2025).
Entries after “also recorded” stand apart in the source; their conditions may differ.

B1: VHH C5: Plasmin-binding alpaca VHH; variable domain SEQ ID NO: 10, or 20 with C-terminal His6-tag; CDRs SEQ ID NO: 4-6 (protein)
VHH: QVQLVESGGGLVQAGGSLRLSCAASGRRFMVVAMGWYRQAPGNQRELVASITNGGTTNYAGSVKGRFTISGDSAKNTVYLHMNSLKPEDTAVYYCTTDVVFRDGNGQIQSNWGQGTQVTVSS
modifications: C5 VHH
B2: VHH A11: Plasmin-binding alpaca VHH; variable domain SEQ ID NO: 9, or 11 with C-terminal His6-tag; CDRs SEQ ID NO: 1-3 (protein)
VHH: QVQLVETGGGLVQAGGSLRLSCAASGNIFSINAMDWYRQAPGKERELVAAITSGGTTNYADSVKGRFTISRDNAKDTVYLQMNSLKPEDAAFYYCNADGYYSDYDKNLAEFNSWGQGTQVTVSS
modifications: A11 VHH

Columns and labels:
[1] = test system: citrate-anticoagulated whole blood; test: Rotational thrombelastometry clot lysis in tPA-spiked whole blood; format: biochemical; conditions: for lysis index at 60 min: concentrations above 1.2 μM, decrease from 65%; for lysis index at 60 min / lysis onset time: tPA 0.5 μg/ml; for lysis onset time: reduced from 47.2 min
From the text: To further test the fibrinolysis-activating properties of VHHs in an ex-vivo model of hyperfibrinolysis, a whole blood based assay can be used whereat citrate-anticoagulated whole blood in the presence of VHHs is spiked with tPA and clot formation and the fibrinolysis rate of the formed clot monitored by thrombelastometry after initiation of clotting by addition of CaCl2) solution containing recombinant TF.
FIG. 4. Influence of VHHs on endogenous fibrinolysis. (A) Citrate-anticoagulated whole blood was mixed with VHHs A11 or C5 and with tPA to achieve a final concentration of 0.5 μg/ml and clot formation was induced by addition of CaCl2) (0.2 M). (B) Lysis index at 60 min(C) Maximum lysis rates, and (D) lysis onset time were recorded. Mean values and SD were calculated out of three measurements.
(§1) The impact of VHHs on the fibrinolytic activity in plasma and whole blood was monitored using rotational thrombelastometry using the ROTEM delta system (TEM Innovations Ltd., Munich, Germany). […] After addition of 0.1 μg/ml tPA, coagulation was initiated by addition of recombinant tissue factor (Dade Innovin, Siemens Healthcare, Marburg, Germany) dissolved 1:100 in calcium chloride (0.2 M). The viscoelasticity of the formed clot was measured in terms of key parameters including clotting time, maximal clot firmness, maximum clot elasticity, maximum lysis, lysis index after 60 minutes, and lysis onset time.

[2] = test system: citrate-anticoagulated pooled normal human plasma; test: Rotational thrombelastometry clot formation parameters in plasma; format: biochemical; conditions: VHHs or BPTI 2.4 μM, TXA 2.4 μg/ml; tPA 0.1 μg/ml
Description: FIG. 10. The impact of VHHs on the clot formation parameters in plasma monitored by rotational thrombelastometry. […] After addition of tPA to reach a final concentration of 0.1 μg/ml, coagulation was initiated by addition of recombinant tissue factor (Dade® Innovin®) dissolved 1:100 in calcium chloride solution (0.2 M). The viscoelasticity of the formed clot was measured in terms of (A) clotting time, (B) maximum clot firmness, and (C) maximum clot elasticity. A non-binder VHH (GFP-enhancer VHH) was used as negative control. Mean values and SD were calculated out of three measurements.
as §1

plasmin [3] = target: T1, plasmin (Homo sapiens, UniProt P00747); test: Activated factor V-inactivation assay (prothrombinase assay); format: biochemical; conditions: for FVa inactivation by plasmin reduced to % of normal: summary statement, concentration not given; for FVa inactivation rate reduced to: plasmin 1.5 nM, rate without VHH = 100%
T1 construct: human Lys-plasmin which is prepared from homogeneous Glu-plasminogen using uPA; purchased Haematologic Technologies, Inc. (Essex Junction, VT)
Description: FIG. 6. (A) Influence of VHHs on plasmin-mediated FVa cleavage. Plasmin (1.5 nM) was incubated with increasing concentrations of VHHs for 30 min at 37° C. After addition of FVa (30 pM) and further incubation for 30 min, FXa (0.52 pM), prothrombin (10 nM) and a fluorogenic thrombin substrate (100 μM) were added and the FVa-dependent thrombin generation was measured. The FVa inactivation rate measured in the absence of VHHs or plasmin inhibitors was set as 100%. […] The data are presented as mean±SD of two independent measurements.
Plasmin-mediated inactivation of activated factor V (FVa) was measured using a prothrombinase assay as recently described (Hamedani 2020). Briefly, 1.5 nM plasmin in assay buffer (20 mM Tris-HCl, 137 mM NaCl, 10 mg/ml phospholipids, 5 mM CaCl2, 1 mg/ml BSA, pH 7.4) was preincubated with VHHs (0.1 nM-10 μM final concentrations) for 30 min at 37° C. Then, 60 μl of the mixture were mixed with 60 μl of […] FVa. After further incubation for 30 min, 25 μl of the reaction mixture were mixed with 50 μl of 1.3 μM human FXa and 100 μM fluorogenic thrombin substrate (Boc-Asp(OBzl)-Pro-Arg-AMC) and 50 μl of 10 nM human prothrombin. Thrombin catalyzed substrate hydrolysis was monitored at λex of 360 nm and λem of 460 nm using the Synergy 2 microplate reader.

plasmin [4] = target: T1, plasmin; test: Michaelis-Menten kinetics of plasmin-mediated cleavage of fluorogenic peptide substrate; format: biochemical; conditions: plasmin 5 nM; VHHs 1 μM, BPTI 3 nM, TXA 7.86 mg/ml; w/o ligand 51.8
Description: Subsequently, 50 μl of the fluorogenic substrate (3.16-3,160 μM final concentration in assay buffer) was added. Substrate hydrolysis rates were monitored by kinetic measurements using the Synergy 2 microplate reader. Apparent Michaelis-Menten constants (Km) and the turn-over number (kcat) values for substrate hydrolysis were calculated from best fit values of the Michaelis-Menten equation and the catalytic efficiencies were expressed as ratios of kcat/Km.
CI, confidence interval. ^a The turnover number (kcat) was calculated using Vmax values extracted from Michaelis-Menten least squares fit.

human plasmin = human plasmin (human, UniProt P00747 97-580; P00747 581-810); test: cell-based or functional assay
Ocriplasmin = Ocriplasmin (Homo sapiens, UniProt P00747); test: Biolayer Interferometry (BLI) binding of VHHs to ocriplasmin (miniplasmin); conditions: HIS-tagged VHH on biosensor
Description: (§2) VHHs binding affinities to human and mouse plasminogen/plasmin were assessed according to Biolayer Interferometry (BLI) using the BLItz system (Pall Life Sciences, Dreieich, Germany) and the Blitz 1.2 software package (Hamedani 2016). […] Afterward, the biosensor was lowered into a tube containing 500 μl of binding buffer to determine kd and koff. All measurements were performed at a shaking speed of 2,200 rpm.

plasmin [5] = target: T1, plasmin; test: Influence on catalytic activity of plasmin with fluorogenic peptide substrate; format: biochemical; conditions: plasmin 5 nM; for increase in substrate conversion: at molar ratios of VHHs over plasmin of 158 (A11) and 500 (C5)
Description: FIG. 3. Effect of plasmin VHHs on the catalytic activity of plasmin for peptide substrates. […] Mean values and SD were calculated out of three measurements.
After incubation, 50 μl of the mixtures were transferred to the wells of black F16 Fluoronunc modules (Thermo Fisher Scientific [Nunc]). Subsequently, 50 μl of 800 μM PLM-specific fluorogenic peptide substrate in the assay buffer (H-Ala-Phe-Lys-AMC, Bachem) was added to the wells and the kinetics of plasmin-mediated substrate hydrolysis was monitored using the Synergy 2 microplate reader.

plasminogen = target: T2, plasminogen (Homo sapiens, UniProt P00747); test: Plasmin generation assay (tPA-mediated plasminogen activation, purified system); format: biochemical; conditions: for inhibition of plasmin generation at higher concentrations: at the assessed / higher concentrations; for EC50: plasminogen 10 nM, tPA 10 nM, read-out: EC50 of tPA-induced plasmin generation
T2 construct: Plasma derived human Glu-plasminogen; purchased Haematologic Technologies, Inc. (plasminogen); Boehringer Ingelheim (tPA)
Description: In order to assess the influence of VHHs on tPA-mediated plasminogen activation, plasminogen was preincubated with increasing concentrations of VHHs. After addition of tPA, plasmin generation was measured over time using a fluorogenic plasmin peptide substrate.
FIG. 5. Influence of VHHs on tPA-mediated plasminogen activation. […] After addition of tPA (10 nM final concentration) plasmin generation was measured over time using the fluorogenic plasmin assay. The data are presented as mean±SD of three independent measurements.
Plasminogen (50 nM) was incubated with VHHs (2 μM to 0.2 μM) for 30 min at 37° C. in assay buffer. Subsequently, 20 μl of 50 nM tPA was added to the mixture and incubated at 37° C. After 3 hours of incubation at 37° C., 50 μl of the mixture were transferred to the wells of black F16 Fluoronunc modules and after addition of 50 μl of the plasmin-specific fluorogenic substrate (800 μM) fluorescence intensities were measured at λex of 360 nm and λem of 460 nm using the Synergy 2 microplate reader.

plasmin [6] = target: T1, plasmin; test: VHHs competition ELISA (plasmin binding to immobilized VHH); conditions: free VHH vs immobilized VHH; plasmin 10 nM
Description: FIG. 2. VHHs competition ELISA. The VHH (A) A11 or (B) C5 was immobilized in the microtiter plate by overnight incubation of 10 μg/ml VHH in 100 μl of coating buffer. […] Data represent the mean±SD of two measurements.
To assess the competition of VHHs for similar or overlapping binding sites on the plasmin molecule, a competition ELISA was performed. Microtiter (96-well) plates were coated with VHHs (10 μg/ml in coating buffer, 100 μl/well) at 2-8° C. overnight. Wells were washed and non-specific protein-binding sites were blocked with 20 mg/ml bovine serum albumine (BSA) for 2 h at RT. After removing the blocking buffer, wells were overlaid with a reaction mixture containing plasmin (10 nM) and VHHs (0.316 nM-31.6 μM) in buffer (20 mM HEPES, 154 mM NaCl, BSA 1 mg/ml, pH 7.4) for 30 min at RT. After washing the amount of bound plasmin was quantified through hydrolysis rates of the fluorogenic plasmin substrate (300 μM, 100 μl/well). The fluorescence intensity measured in the absence of free VHHs was set as 100%.

plasmin [7] = target: T1, plasmin; test: Biolayer Interferometry (BLI) binding of VHHs to human plasmin; conditions: HIS-tagged VHH on biosensor
Description: as §2

mouse plasminogen = target: T3, mouse plasminogen (Mus musculus, UniProt P20918); test: Biolayer Interferometry (BLI) binding of VHHs to mouse plasminogen; conditions: HIS-tagged VHH on biosensor
T3 construct: mouse Glu-plasminogen, mouse plasmin; purchased Haematologic Technologies, Inc. (Essex Junction, VT)
Description: as §2

tPA = target: T4, tPA (Homo sapiens, UniProt P00750); test: Biolayer Interferometry (BLI) binding of VHHs to tPA; conditions: HIS-tagged VHH on biosensor
T4 construct: purchased Boehringer Ingelheim (Biberach, Germany) Actilyse
T4 sequence (P00750 36-562): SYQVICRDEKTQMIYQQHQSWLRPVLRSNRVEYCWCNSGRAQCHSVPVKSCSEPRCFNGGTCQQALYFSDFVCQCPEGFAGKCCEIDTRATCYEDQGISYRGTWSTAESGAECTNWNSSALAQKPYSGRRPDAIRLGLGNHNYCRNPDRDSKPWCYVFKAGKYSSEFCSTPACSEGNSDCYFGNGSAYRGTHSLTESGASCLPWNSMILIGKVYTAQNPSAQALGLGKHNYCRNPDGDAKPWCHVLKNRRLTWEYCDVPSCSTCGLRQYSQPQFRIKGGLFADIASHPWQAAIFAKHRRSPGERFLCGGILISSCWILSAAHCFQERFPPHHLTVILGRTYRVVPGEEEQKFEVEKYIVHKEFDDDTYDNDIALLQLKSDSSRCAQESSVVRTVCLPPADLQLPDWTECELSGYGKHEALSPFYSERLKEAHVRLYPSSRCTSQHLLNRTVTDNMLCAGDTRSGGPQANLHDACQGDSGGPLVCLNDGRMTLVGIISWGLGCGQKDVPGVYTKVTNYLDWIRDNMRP

T1 sequence (P00747 97-580 limits assumed): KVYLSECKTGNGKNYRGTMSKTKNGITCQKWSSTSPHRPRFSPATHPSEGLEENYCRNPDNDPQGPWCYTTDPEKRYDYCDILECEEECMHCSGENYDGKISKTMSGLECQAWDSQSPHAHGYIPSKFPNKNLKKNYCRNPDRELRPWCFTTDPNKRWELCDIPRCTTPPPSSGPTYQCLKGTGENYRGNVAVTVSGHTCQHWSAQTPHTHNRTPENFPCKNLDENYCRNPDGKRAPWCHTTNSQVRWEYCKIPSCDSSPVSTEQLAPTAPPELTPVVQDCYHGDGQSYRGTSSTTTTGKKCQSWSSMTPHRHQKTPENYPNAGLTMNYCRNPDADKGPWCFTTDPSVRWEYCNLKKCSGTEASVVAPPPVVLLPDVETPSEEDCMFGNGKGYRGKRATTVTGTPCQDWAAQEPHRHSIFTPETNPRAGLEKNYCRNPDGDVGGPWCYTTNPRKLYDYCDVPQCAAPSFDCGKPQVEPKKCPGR
T1 sequence (P00747 581-810 limits assumed): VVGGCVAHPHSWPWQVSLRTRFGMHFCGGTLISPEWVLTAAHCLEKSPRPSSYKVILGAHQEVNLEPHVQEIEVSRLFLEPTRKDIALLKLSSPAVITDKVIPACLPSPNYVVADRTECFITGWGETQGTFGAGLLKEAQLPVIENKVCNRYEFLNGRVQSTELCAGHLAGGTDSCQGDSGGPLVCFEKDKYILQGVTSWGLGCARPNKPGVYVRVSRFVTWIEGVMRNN
Sequence of Ocriplasmin (P00747 581-810 limits assumed, other chains not shown): as the sequence (P00747 581-810 limits assumed) above
T2 sequence (P00747 20-810 limits assumed): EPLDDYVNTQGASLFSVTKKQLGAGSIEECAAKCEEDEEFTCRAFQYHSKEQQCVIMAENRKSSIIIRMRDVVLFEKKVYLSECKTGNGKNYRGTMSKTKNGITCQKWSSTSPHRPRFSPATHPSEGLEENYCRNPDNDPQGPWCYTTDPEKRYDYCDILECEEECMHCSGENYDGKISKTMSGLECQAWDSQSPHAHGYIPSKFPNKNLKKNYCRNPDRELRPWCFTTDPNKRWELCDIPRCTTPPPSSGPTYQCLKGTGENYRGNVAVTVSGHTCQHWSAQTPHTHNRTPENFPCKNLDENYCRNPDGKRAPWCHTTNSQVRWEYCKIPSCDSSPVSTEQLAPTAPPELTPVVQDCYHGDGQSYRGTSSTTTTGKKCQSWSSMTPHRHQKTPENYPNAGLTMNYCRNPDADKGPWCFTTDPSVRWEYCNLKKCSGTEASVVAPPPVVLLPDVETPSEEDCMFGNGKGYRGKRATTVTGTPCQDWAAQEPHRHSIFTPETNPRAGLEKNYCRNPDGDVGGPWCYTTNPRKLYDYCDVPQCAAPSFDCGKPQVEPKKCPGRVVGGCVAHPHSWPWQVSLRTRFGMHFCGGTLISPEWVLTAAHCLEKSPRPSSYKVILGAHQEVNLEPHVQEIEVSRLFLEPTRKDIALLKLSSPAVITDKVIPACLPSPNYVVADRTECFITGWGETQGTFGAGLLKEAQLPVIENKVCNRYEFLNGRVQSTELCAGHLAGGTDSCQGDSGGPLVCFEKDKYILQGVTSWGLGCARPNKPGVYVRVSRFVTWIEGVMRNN
T3 sequence (P20918 20-812 limits assumed): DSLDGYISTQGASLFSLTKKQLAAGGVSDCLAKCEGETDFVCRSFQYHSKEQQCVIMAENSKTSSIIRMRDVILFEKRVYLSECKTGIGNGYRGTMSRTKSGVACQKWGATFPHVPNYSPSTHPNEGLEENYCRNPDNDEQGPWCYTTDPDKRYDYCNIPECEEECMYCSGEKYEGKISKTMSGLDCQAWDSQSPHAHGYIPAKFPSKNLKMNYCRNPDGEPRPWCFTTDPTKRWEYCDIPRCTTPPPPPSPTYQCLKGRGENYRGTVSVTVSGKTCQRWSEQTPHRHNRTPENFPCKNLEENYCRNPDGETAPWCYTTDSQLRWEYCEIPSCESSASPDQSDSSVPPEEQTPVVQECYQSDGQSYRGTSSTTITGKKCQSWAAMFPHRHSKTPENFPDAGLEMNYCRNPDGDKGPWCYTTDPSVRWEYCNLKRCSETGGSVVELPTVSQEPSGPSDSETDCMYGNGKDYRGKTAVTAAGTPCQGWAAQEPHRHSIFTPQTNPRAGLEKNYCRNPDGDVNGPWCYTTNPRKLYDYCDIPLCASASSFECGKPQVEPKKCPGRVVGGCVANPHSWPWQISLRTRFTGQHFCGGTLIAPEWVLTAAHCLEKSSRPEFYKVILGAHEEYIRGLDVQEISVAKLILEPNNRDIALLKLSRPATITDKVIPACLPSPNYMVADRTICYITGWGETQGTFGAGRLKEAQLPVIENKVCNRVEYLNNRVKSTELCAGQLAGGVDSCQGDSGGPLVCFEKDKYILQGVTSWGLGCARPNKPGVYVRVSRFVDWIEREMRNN
Sequence of human plasmin (P00747 97-580 limits assumed, chain 1 of 2): as the sequence (P00747 97-580 limits assumed) above
Sequence of human plasmin (P00747 581-810 limits assumed, chain 2 of 2): as the sequence (P00747 581-810 limits assumed) above

| Molecule | FVa inactivation by plasmin reduced to % of normal (plasmin [3]) [%] | kcat × 10^3 (s^−1) mean (95% CI) (plasmin [4]) | lysis index at 60 min [1] [%] | lysis onset time [1] [min] | increase in substrate conversion (plasmin [5]) | inhibition of plasmin generation at higher concentrations (plasminogen) | EC50 (plasminogen) [nM] | competition of VHHs for binding site on plasmin molecule (plasmin [6]) | kD human plasmin (plasmin [7]) | kD mouse plasminogen (mouse plasminogen) | kD tPA (tPA) | other results |
| --- | --- | --- | --- | --- | --- | --- | --- | --- | --- | --- | --- | --- |
| Aprotinin [BPTI, reference compound] | 20 | 29.6 (29-30) s^−1 |  |  |  |  |  |  |  |  |  | effect on lysis compared to VHHs (FIG. 4C, maximum lysis rates) ([1]; tPA-spiked whole blood): inhibition of lysis; effect on fibrin clot formation parameters (clotting time, maximum clot firmness, maximum clot elasticity) [2]: does not affect; maximal inhibition rate of plasmin-mediated cleavage of FVa (plasmin [3]; BPTI 10 μM): 26% |
| human alpha2-antiplasmin (from UniProt P08697 40-491) |  |  |  |  |  |  |  |  |  |  |  | residual plasmin activity after incubation with α2AP (human plasmin): < 0.1% |
| B1 | 80 | 69.9 (68-72) s^−1 | 0 | 13.8 | approx. 2.5 fold | no inhibitory effect | 2.3 | competed for the same or overlapping binding site | low nanomolar range | no reactivity | weak binding | kD Ocriplasmin (Ocriplasmin; listed as C5): None of these VHHs bind and n.b.; FVa inactivation rate reduced to (plasmin [3]; C5 concentration of 3.16 nM or higher): 78% |
| B2 |  | 67.2 (65-70) s^−1 | 0 | 10.3 | approx. 2.5 fold | no inhibitory effect | 0.93 | competed for the same or overlapping binding site | low nanomolar range | no reactivity | weak binding | kD Ocriplasmin (Ocriplasmin; listed as A11): None of these VHHs bind; also recorded: n.b.*; molar ratio of VHHs over plasmin at which approx. 2.5-fold increase in substrate conversion was achieved (plasmin [5]; H-Ala-Phe-Lys-AMC): 158; FVa inactivation rate reduced to (plasmin [3]; A11 concentrations above 10^-9 M): 60%; FVa inactivation by plasmin reduced to % of normal (plasmin [3]; listed as A11): 60% |
